The target in test [1] is Notch3-EGF/Fc fusion protein (human) (UniProt Q9UM47). Description: ELISA, hybridoma supernatant on coated Notch3-EGF/Fc (0.1 ug/ml); control beside 255A-77. For orientation: In an ELISA, binding on a coated surface is turned into a signal by an enzyme label.
For test [2] the target is unchanged. Kind of test: ELISA, hybridoma supernatant on coated Notch3-EGF/Fc (0.1 ug/ml); control beside 255A-71.
The target in test [3] is T1, Notch3-LD/Fc fusion protein (human, UniProt Q9UM47 1378-1640).
T1 construct: A signal peptide was linked to the N-terminus (not identified, left out); not described; also called Notch3/Fc fusion protein
T1 sequence: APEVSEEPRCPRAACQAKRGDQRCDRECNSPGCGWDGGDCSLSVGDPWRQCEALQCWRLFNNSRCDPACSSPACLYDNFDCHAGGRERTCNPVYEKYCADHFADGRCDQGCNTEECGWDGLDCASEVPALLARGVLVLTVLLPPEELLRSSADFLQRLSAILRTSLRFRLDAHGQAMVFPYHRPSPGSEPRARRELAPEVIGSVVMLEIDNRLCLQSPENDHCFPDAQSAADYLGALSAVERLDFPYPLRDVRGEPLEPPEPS
Description: ELISA, hybridoma supernatant on coated Notch3-LD/Fc (0.1 ug/ml); control beside 256A-13.

Test [4] addresses human Notch3 (full-length) (human) (UniProt Q9UM47). Kind of test: FACS on 293T cells transiently transfected with Notch3/Hygromycin.
Test [5] has the same target. Kind of test: FACS on Sup-T1 cells (native Notch3).
The target in another test is T2, Notch3-LDTM/V5 (human, UniProt Q9UM47 1378-1664, limits assumed).
T2 construct: not shown: V5 tag at the C-terminus
T2 sequence: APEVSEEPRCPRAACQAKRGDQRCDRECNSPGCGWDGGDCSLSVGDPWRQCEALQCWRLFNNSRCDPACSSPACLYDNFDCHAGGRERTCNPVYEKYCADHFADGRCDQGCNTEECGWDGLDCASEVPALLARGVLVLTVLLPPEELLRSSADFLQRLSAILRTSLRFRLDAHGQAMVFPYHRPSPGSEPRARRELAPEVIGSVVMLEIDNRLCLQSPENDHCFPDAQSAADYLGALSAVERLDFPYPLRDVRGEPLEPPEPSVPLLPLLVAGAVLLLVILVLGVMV
Description: cell-based FMAT assay on cells expressing Notch3-LDTM. As for the experimental part: Cell-based antibody-binding was assessed using FMAT™ 8100 HTS System (Applied Biosystems, Foster City, Calif.) and protocol provided by the manufacturer with some modification. Cell lines expressing Notch3 were seeded in 96-well plates at a density of 30,000-50,000 cells per well. After 20-24 hours, anti-Notch3 mAbs and 1×PBS reaction buffer were added to the wells and incubated for one hour at 37° C. Cy-5-conjugated anti-mouse IgG antibody was added to the wells after removal of primary antibodies. The fluorescent intensity of bound antibody was measured by FMAT™ 8100 HTS System.

In test [6] the target is T1, Notch3-LD/Fc fusion protein. Description: Western blot, denaturing conditions. As for the experimental part: Western blot was performed to assess anti-Notch3 mAbs binding activity to Notch3 under denaturing condition. For this purpose, purified Notch3-EGF/Fc and Notch3-LD/Fc fusion proteins were combined with protein loading buffer (BioRad, Hercules, Calif.). Protein samples were also prepared from the transiently or stably transfected cells described in Example 1, which were harvested from culture dishes, washed once with phosphate buffered saline (PBS), resuspended in deionized water, and heated at 100° C. for 10 minutes after adding equal volume of 2× protein sample loading buffer (BioRad, Hercules, Calif.). All samples were separated by electrophoresis in a 4-15% gradient SDS-PAGE (BioRad, Hercules, Calif.). The proteins were transferred from gel to PVDF membrane (BioRad, Hercules, Calif.) and anti-Notch3 mAbs were applied to the Western blot membrane as the primary detection antibody. An HRP-conjugated secondary antibody was used for detection and the signal generated using a Supersignal Chemiluminescent Substrate (Pierce, Rockford, Ill.) as described above.

Chain of human Notch3 (full-length) (human) (Q9UM47 40-2321 A2223V limits assumed): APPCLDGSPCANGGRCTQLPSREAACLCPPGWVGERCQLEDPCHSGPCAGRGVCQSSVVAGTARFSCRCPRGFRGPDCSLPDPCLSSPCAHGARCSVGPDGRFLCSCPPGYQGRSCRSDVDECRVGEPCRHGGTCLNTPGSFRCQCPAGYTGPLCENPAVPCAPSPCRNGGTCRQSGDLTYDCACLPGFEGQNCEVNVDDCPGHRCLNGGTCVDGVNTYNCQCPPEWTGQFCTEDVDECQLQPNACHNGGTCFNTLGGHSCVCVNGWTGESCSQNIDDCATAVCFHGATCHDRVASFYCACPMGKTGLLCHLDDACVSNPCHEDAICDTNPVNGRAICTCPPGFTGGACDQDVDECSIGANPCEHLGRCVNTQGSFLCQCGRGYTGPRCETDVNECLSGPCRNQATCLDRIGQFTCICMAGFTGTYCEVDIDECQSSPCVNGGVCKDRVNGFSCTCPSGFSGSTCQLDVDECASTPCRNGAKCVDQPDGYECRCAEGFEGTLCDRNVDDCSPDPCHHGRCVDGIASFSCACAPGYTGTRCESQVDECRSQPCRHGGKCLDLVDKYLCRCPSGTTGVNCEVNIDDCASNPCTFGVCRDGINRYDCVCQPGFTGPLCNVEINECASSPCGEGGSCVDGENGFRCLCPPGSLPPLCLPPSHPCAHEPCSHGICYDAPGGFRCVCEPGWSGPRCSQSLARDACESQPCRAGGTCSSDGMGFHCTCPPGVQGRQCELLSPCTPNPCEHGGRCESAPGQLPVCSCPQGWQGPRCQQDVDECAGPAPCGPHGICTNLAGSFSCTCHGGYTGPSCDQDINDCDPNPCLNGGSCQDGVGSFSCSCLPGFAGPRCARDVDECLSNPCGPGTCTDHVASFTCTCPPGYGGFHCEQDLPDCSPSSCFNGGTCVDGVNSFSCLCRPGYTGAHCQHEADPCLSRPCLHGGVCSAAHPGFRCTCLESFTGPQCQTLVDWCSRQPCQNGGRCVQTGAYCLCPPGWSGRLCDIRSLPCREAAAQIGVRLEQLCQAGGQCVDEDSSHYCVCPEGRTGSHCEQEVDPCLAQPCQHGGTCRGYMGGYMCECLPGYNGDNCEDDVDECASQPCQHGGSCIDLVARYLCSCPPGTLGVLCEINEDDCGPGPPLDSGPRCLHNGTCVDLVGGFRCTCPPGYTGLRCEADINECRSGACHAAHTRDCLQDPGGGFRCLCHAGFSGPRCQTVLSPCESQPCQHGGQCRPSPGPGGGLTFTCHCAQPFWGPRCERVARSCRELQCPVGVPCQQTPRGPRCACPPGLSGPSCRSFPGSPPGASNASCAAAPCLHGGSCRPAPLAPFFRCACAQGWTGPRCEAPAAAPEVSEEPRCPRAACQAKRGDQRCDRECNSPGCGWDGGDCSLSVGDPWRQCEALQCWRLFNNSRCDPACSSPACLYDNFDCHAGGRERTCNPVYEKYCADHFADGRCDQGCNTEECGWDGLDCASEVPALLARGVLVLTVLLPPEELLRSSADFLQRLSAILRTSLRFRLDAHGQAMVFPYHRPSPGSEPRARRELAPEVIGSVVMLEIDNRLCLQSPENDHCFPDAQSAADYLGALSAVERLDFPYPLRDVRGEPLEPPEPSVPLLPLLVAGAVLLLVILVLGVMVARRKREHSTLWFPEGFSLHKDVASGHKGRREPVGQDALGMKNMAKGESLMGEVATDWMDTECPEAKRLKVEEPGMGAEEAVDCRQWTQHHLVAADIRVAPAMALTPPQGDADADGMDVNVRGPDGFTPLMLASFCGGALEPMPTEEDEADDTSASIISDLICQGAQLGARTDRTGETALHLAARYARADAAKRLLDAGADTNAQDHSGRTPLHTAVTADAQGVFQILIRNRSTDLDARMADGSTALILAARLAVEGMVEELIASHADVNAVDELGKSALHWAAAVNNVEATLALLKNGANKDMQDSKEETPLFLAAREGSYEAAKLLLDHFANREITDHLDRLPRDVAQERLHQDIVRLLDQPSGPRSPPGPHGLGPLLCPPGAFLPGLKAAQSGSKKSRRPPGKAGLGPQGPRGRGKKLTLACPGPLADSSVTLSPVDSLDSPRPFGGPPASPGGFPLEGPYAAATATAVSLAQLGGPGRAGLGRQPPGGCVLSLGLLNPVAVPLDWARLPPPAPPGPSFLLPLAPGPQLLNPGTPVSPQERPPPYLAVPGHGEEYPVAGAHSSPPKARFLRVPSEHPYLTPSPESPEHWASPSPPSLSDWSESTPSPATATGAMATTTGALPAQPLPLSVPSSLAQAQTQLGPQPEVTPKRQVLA
Chain of Notch3-EGF/Fc fusion protein (human) (Q9UM47 43-1377): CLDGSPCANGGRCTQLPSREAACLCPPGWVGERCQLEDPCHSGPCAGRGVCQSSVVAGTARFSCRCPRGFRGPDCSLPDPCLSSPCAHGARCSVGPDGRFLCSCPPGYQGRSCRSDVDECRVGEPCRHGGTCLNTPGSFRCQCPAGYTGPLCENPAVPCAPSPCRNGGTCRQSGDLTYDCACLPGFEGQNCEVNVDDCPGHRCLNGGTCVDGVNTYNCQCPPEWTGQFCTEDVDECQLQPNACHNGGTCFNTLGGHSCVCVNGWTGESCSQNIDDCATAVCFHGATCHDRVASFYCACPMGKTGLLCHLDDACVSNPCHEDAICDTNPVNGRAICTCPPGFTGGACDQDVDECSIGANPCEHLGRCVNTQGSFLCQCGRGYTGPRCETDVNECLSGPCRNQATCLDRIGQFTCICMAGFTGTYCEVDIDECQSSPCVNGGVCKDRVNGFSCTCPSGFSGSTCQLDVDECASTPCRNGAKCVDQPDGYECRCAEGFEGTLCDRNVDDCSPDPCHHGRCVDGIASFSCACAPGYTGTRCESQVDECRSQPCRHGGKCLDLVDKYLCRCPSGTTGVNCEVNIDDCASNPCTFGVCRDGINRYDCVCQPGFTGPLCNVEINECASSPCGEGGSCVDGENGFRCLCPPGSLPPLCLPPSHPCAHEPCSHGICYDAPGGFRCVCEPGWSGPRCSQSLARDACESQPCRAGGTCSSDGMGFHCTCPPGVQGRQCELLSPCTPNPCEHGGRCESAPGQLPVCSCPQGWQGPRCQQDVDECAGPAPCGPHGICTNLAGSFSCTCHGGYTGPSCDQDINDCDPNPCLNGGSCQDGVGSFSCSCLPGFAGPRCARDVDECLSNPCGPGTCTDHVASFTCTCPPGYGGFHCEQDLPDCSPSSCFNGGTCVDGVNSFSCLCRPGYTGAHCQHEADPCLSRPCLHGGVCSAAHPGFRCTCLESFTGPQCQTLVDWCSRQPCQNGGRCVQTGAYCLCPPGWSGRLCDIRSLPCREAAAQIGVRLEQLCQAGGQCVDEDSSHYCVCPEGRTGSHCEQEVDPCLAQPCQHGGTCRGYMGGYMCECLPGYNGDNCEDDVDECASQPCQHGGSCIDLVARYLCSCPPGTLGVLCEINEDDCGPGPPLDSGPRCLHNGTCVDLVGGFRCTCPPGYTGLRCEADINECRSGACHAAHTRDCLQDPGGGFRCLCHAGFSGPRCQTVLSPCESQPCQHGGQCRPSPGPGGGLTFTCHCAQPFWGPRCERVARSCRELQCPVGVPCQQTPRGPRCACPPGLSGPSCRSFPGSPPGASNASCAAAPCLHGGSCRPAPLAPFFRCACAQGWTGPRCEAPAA

Regarding “Control hybridoma supernatant (antibody)”, the ELISA OD at 450 nm (mean) in test [1] came to 0.019 OD; in test [2], 0.01 OD; in test [3] it was 0.019 OD.
In the case of Control IgG1 (antibody), the mean fluorescence intensity in test [4] is 24.2 MFI; in test [5], 24.5 MFI.

B1: anti-Notch 3 monoclonal antibody mAb 255A-77 (antibody, V domains shown)
VH: QVQLQQSGDDLVKPGASVKLSCKASGYTFTSYWINWIKQRPGQGLEWIGHIGPGSGSTYYNEIFKGKATLTVDTSSSTAYIQLSSLSSEDSAVYFCVLTRYFYAMDYWGQGTSVTVSS
VL: DIVMTQSPSSLAVTAGEKVTMRCKSSQSLLWSVNQNNYLSWYQQKQGQPPKLLIYGASIRESWVPDRFTGSGSGTDFTLTISNVHVEDLAVYYCQHNHGSFLPLTFGAGTKLELKR
notes: Mouse hybridoma mAb raised against Notch3-EGF/Fc
As to B1, the binding result (in the test with Notch3-LDTM/V5; in test [6]) was “no binding” each time.

B2: anti-Notch 3 monoclonal antibody mAb 255A-71 (antibody, V domains shown)
VH: DVQLQESGPGLVKPSQSLSLTCSVTGYSITSGYYWNWIRQFPGNKLEWMGFISYDGSNNYNPSLKNRISITRDTSKNQFFLKLNSVTTEDTATFYCATLYYDYDGNYFDYWGQGTTLTVSS
VL: CDIQMTQTTSSLSASLGDRVTISCRTSQDISNYLNWYQQKPDGTVKLLIYYTSRLHSGVPSRFSGSGSGTDYSLTISNLEQEDIATYFCQQGNALPLTFGPGTKLELKR
notes: as for B1
On to B2, for which the binding result (in the test with Notch3-LDTM/V5; in test [6]) was “no binding” each time.

The values above are taken from patent US20080131908A1 (Genentech, published 2008).
